These results are taken from patent publication US20220034884A1 (GOVERNMENT OF THE UNITED STATES OF AMERICA AS REPRESENTED …, published 2022).

For the experiment, the target named is T1, C-terminal GFP-tagged ACE2 fusion protein stably expressed on HEK293T cells (ACE2-GFP HEK293T) (UniProt Q9BYF1 18-805).
T1 construct: also called ACE2-GFP HEK293T clone 2; ACE2-GFP HEK293T clone 1
As to the kind of experiment: live-cell confocal imaging of ACE2-GFP HEK293T cells.

T1 sequence (Q9BYF1 18-805): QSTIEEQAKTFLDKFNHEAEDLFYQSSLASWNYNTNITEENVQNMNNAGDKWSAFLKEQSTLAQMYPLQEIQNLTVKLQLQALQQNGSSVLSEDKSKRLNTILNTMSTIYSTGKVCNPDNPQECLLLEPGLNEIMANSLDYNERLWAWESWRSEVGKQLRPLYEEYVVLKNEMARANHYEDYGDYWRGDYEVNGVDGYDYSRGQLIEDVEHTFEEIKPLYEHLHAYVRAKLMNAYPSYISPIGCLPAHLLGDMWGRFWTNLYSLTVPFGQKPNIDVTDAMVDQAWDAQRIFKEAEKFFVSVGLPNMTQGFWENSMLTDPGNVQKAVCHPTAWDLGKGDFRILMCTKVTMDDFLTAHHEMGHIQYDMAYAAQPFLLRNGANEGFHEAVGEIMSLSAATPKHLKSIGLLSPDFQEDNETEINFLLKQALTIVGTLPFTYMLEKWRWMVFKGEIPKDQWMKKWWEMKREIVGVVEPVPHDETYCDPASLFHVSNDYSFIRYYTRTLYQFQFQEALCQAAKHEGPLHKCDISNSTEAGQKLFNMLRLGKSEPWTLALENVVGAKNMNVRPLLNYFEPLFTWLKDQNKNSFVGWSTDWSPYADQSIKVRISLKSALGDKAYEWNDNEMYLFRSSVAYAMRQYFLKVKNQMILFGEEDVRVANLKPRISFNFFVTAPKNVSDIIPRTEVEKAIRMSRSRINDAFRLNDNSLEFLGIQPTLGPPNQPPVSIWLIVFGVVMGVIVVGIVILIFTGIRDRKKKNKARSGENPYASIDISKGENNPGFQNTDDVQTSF

B1: SARS-CoV [change] (40150-V08B1) (ligand)
chain: not shown
As for B1, the binding result was “binds”.
